Measurements from the supplement of paper PMC11316812.
± gives the standard deviation of the averaged measurements.

Assays:
hTERT-HMEC = assay: percentage of EdU-negative (G0-arrested) nuclei per well, 72 h; higher = more G0 arrest; settings: reference: sequence is the full UniProt precursor, the tested protein was the secreted form or ectodomain
MCF7 = assay: as above; settings: reference: sequence is the full UniProt precursor, the tested protein was the secreted form or ectodomain
[1] = protein concentration 0.0357143 µM
[2] = protein concentration 0.357143 µM
[3] = protein concentration 0.024875 µM
[4] = protein concentration 0.24875 µM
[5] = protein concentration 0.0225 µM
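Also: secreted proteins added to cultured cells, EdU pulse at the end, nuclei found by Hoechst imaging, EdU status from nuclear versus surrounding ring intensity ratio, PBS as neutral control.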

| Sequence | percentage of EdU-negative (hTERT-HMEC; [5]) | percentage of EdU-negative (hTERT-HMEC; protein concentration 0.225 µM) | percentage of EdU-negative (MCF7; [5]) | percentage of EdU-negative (MCF7; protein concentration 0.225 µM) | also measured |
| --- | --- | --- | --- | --- | --- |
| MCLSHLENMPLSHSRTQGAQRSSWKLWLFCSIVMLLFLCSFSWLIFIFLQLETAKEPCMAKFGPLPSKWQMASSEPPCVNKVSDWKLEILQNGLYLIYGQVAPNANYNDVAPFEVRLYKNKDMIQTLTNKSKIQNVGGTYELHVGDTIDLIFNSEHQVLKNNTYWGIILLANPQFIS [Q9UNG2] |  |  |  |  | percentage of EdU-negative (hTERT-HMEC; [1]): 5.8 ± 0.82%; percentage of EdU-negative (hTERT-HMEC; [2]): 7.64 ± 0.14%; percentage of EdU-negative (MCF7; [1]): 24.5 ± 2.7%; percentage of EdU-negative (MCF7; [2]): 27 ± 1.1% |
| MCRIAGALRTLLPLLAALLQASVEASGEIALCKTGFPEDVYSAVLSKDVHEGQPLLNVKFSNCNGKRKVQYESSEPADFKVDEDGMVYAVRSFPLSSEHAKFLIYAQDKETQEKWQVAVKLSLKPTLTEESVKESAEVEEIVFPRQFSKHSGHLQRQKRDWVIPPINLPENSRGPFPQELVRIRSDRDKNLSLRYSVTGPGADQPPTGIFIINPISGQLSVTKPLDREQIARFHLRAHAVDINGNQVENPIDIVINVIDMNDNRPEFLHQVWNGTVPEGSKPGTYVMTVTAIDADDPNALNGMLRYRIVSQAPSTPSPNMFTINNETGDIITVAAGLDREKVQQYTLIIQATDMEGNPTYGLSNTATAVITVTDVNDNPPEFTAMTFYGEVPENRVDIIVANLTVTDKDQPHTPAWNAVYRISGGDPTGRFAIQTDPNSNDGLVTVVKPIDFETNRMFVLTVAAENQVPLAKGIQHPPQSTATVSVTVIDVNENPYFAPNPKIIRQEEGLHAGTMLTTFTAQDPDRYMQQNIRYTKLSDPANWLKIDPVNGQITTIAVLDRESPNVKNNIYNATFLASDNGIPPMSGTGTLQIYLLDINDNAPQVLPQEAETCETPDPNSINITALDYDIDPNAGPFAFDLPLSPVTIKRNWTITRLNGDFAQLNLKIKFLEAGIYEVPIIITDSGNPPKSNISILRVKVCQCDSNGDCTDVDRIVGAGLGTGAIIAILLCIIILLILVLMFVVWMKRRDKERQAKQLLIDPEDDVRDNILKYDEEGGGEEDQDYDLSQLQQPDTVEPDAIKPVGIRRMDERPIHAEPQYPVRSAAPHPGDIGDFINEGLKAADNDPTAPPYDSLLVFDYEGSGSTAGSLSSLNSSSSGGEQDYDYLNDWGPRFKKLADMYGGGDD |  |  |  |  | percentage of EdU-negative (hTERT-HMEC; [3]): 4.75 ± 0.064%; percentage of EdU-negative (hTERT-HMEC; [4]): 9.56 ± 1.9%; percentage of EdU-negative (MCF7; [3]): 27 ± 2.4%; percentage of EdU-negative (MCF7; [4]): 28 ± 1.6% |
| MCSRGWDSCLALELLLLPLSLLVTSIQGHLVHMTVVSGSNVTLNISESLPENYKQLTWFYTFDQKIVEWDSRKSKYFESKFKGRVRLDPQSGALYISKVQKEDNSTYIMRVLKKTGNEQEWKIKLQVLDPVPKPVIKIEKIEDMDDNCYLKLSCVIPGESVNYTWYGDKRPFPKELQNSVLETTLMPHNYSRCYTCQVSNSVSSKNGTVCLSPPCTLARSFGVEWIASWLVVTVPTILGLLLT | 4.77 ± 0.31% | 10.71 ± 0.089% | 25.8 ± 1.1% | 27.8 ± 2% |  |
| MCSTMSAPTCLAHLPPCFLLLALVLVPSDASGQSSRNDWQVLQPEGPMLVAEGETLLLRCMVVGSCTDGMIKWVKVSTQDQQEIYNFKRGSFPGVMPMIQRTSEPLNCDYSIYIHNVTREHTGTYHCVRFDGLSEHSEMKSDEGTSVLVKGAGDPEPDLWIIQPQELVLGTTGDTVFLNCTVLGDGPPGPIRWFQGAGLSREAIYNFGGISHPKETAVQASNNDFSILLQNVSSEDAGTYYCVKFQRKPNRQYLSGQGTSLKVKAKSTSSKEAEFTSEPATEMSPTGLLVVFAPVVLGLKAITLAALLLALATSRRSPGQEDVKTTGPAGAMNTLAWSKGQE [Q5JXA9] | 5.12 ± 0.92% | 5.14 ± 0.34% | 28 ± 1.8% | 26.5 ± 3.1% |  |
| MCTKTIPVLWGCFLLWNLYVSSSQTIYPGIKARITQRALDYGVQAGMKMIEQMLKEKKLPDLSGSESLEFLKVDYVNYNFSNIKISAFSFPNTSLAFVPGVGIKALTNHGTANISTDWGFESPLFQDTGGADLFLSGVYFTGIIILTRNDFGHPTLKLQDCYAQLSHAHVSFSGELSVLYNSFAEPMEKPILKNLNEMLCPIIASEVKALNANLSTLEVLTKIDNYTLLDYSLISSPEITENYLDLNLKGVFYPLENLTDPPFSPVPFVLPERSNSMLYIGIAEYFFKSASFAHFTAGVFNVTLSTEEISNHFVQNSQGLGNVLSRIAEIYILSQPFMVRIMATEPPIINLQPGNFTLDIPASIMMLTQPKNSTVETIVSMDFVASTSVGLVILGQRLVCSLSLNRFRLALPESNRSNIEVLRFENILSSILHFGVLPLANAKLQQGFPLSNPHKFLFVNSDIEVLEGFLLISTDLKYETSSKQQPSFHVWEGLNLISRQWRGKSAP [Q8NFQ6] |  |  |  |  | percentage of EdU-negative (hTERT-HMEC; [1]): 5.01 ± 0.62%; percentage of EdU-negative (hTERT-HMEC; [2]): 21.7 ± 0.58%; percentage of EdU-negative (MCF7; [1]): 25.1 ± 3.5%; percentage of EdU-negative (MCF7; [2]): 31.5 ± 2.8% |
| MCVGARRLGRGPCAALLLLGLGLSTVTGLHCVGDTYPSNDRCCHECRPGNGMVSRCSRSQNTVCRPCGPGFYNDVVSSKPCKPCTWCNLRSGSERKQLCTATQDTVCRCRAGTQPLDSYKPGVDCAPCPPGHFSPGDNQACKPWTNCTLAGKHTLQPASNSSDAICEDRDPPATQPQETQGPPARPITVQPTEAWPRTSQGPSTRPVEVPGGRAVAAILGLGLVLGLLGPLAILLALYLLRRDQRLPPDAHKPPGGGSFRTPIQEEQADAHSTLAKI | 5.89 ± 1% | 6.68 ± 0.33% | 24.5 ± 3.6% | 26 ± 1.2% |  |
| MCVTYHNGTGYCKCPEGFLGEYCQHRDPCEKNRCQNGGTCVAQAMLGKATCRCASGFTGEDCQYSTSHPCFVSRPCLNGGTCHMLSRDTYECTCQVGFTGKECQWTDACLSHPCANGSTCTTVANQFSCKCLTGFTGQKCETDVNECDIPGHCQHGGTCLNLPGSYQCQCLQGFTGQYCDSLYVPCAPSPCVNGGTCRQTGDFTFECNCLPETVRRGTELWERDREVWNGKEHDEN [Q7Z3S9] | 5.34 ± 0.17% | 5.36 ± 0.21% | 26 ± 0.95% | 24.5 ± 0.49% |  |
| MDFGLALLLAGLLGLLLGQSLQVKPLQVEPPEPVVAVALGASRQLTCRLACADRGASVQWRGLDTSLGAVQSDTGRSVLTVRNASLSAAGTRVCVGSCGGRTFQHTVQLLVYAFPDQLTVSPAALVPGDPEVACTAHKVTPVDPNALSFSLLVGGQELEGAQALGPEVQEEEEEPQGDEDVLFRVTERWRLPPLGTPVPPALYCQATMRLPGLELSHRQAIPVLHSPTSPEPPDTTSPESPDTTSPESPDTTSQEPPDTTSPEPPDKTSPEPAPQQGSTHTPRSPGSTRTRRPEISQAGPTQGEVIPTGSSKPAGDQLPAALWTSSAVLGLLLLALPTYHLWKRCRHLAEDDTHPPASLRLLPQVSAWAGLRGTGQVGISPS | 5.3 ± 0.25% | 5.85 ± 0.98% | 27.1 ± 4.2% | 26.3 ± 1.4% |  |
| MDFPCLWLGLLLPLVAALDFNYHRQEGMEAFLKTVAQNYSSVTHLHSIGKSVKGRNLWVLVVGRFPKEHRIGIPEFKYVANMHGDETVGRELLLHLIDYLVTSDGKDPEITNLINSTRIHIMPSMNPDGFEAVKKPDCYYSIGRENYNQYDLNRNFPDAFEYNNVSRQPETVAVMKWLKTETFVLSANLHGGALVASYPFDNGVQATGALYSRSLTPDDDVFQYLAHTYASRNPNMKKGDECKNKMNFPNGVTNGYSWYPLQGGMQDYNYIWAQCFEITLELSCCKYPREEKLPSFWNNNKASLIEYIKQVHLGVKGQVFDQNGNPLPNVIVEVQDRKHICPYRTNKYGEYYLLLLPGSYIINVTVPGHDPHITKVIIPEKSQNFSALKKDILLPFQGQLDSIPVSNPSCPMIPLYRNLPDHSAATKPSLFLFLVSLLHIFFK | 4.44 ± 0.072% | 4.97 ± 0.2% | 25.2 ± 4.8% | 26.7 ± 1.4% |  |
| MDGAMGPRGLLLCMYLVSLLILQAMPALGSATGRSKSSEKRQAVDTAVDGVFIRSLKVNCKVTSRFAHYVVTSQVVNTANEAREVAFDLEIPKTAFISDFAVTADGNAFIGDIKDKVTAWKQYRKAAISGENAGLVRASGRTMEQFTIHLTVNPQSKVTFQLTYEEVLKRNHMQYEIVIKVKPKQLVHHFEIDVDIFEPQGISKLDAQASFLPKELAAQTIKKSFSGKKGHVLFRPTVSQQQSCPTCSTSLLNGHFKVTYDVSRDKICDLLVANNHFAHFFAPQNLTNMNKNVVFVIDISGSMRGQKVKQTKEALLKILGDMQPGDYFDLVLFGTRVQSWKGSLVQASEANLQAAQDFVRGFSLDEATNLNGGLLRGIEILNQVQESLPELSNHASILIMLTDGDPTEGVTDRSQILKNVRNAIRGRFPLYNLGFGHNVDFNFLEVMSMENNGRAQRIYEDHDATQQLQGFYSQVAKPLLVDVDLQYPQDAVLALTQNHHKQYYEGSEIVVAGRIADNKQSSFKADVQAHGEGQEFSITCLVDEEEMKKLLRERGHMLENHVERLWAYLTIQELLAKRMKVDREERANLSSQALQMSLDYGFVTPLTSMSIRGMADQDGLKPTIDKPSEDSPPLEMLGPRRTFVLSALQPSPTHSSSNTQRLPDRVTGVDTDPHFIIHVPQKEDTLCFNINEEPGVILSLVQDPNTGFSVNGQLIGNKARSPGQHDGTYFGRLGIANPATDFQLEVTPQNITLNPGFGGPVFSWRDQAVLRQDGVVVTINKKRNLVVSVDDGGTFEVVLHRVWKGSSVHQDFLGFYVLDSHRMSARTHGLLGQFFHPIGFEVSDIHPGSDPTKPDATMVVRNRRLTVTRGLQKDYSKDPWHGAEVSCWFIHNNGAGLIDGAYTDYIVPDIF | 5.89 ± 0.64% | 6.12 ± 0.16% | 26.48 ± 0.18% | 26 ± 0.27% |  |
